The values that follow are results of earlier work, collected in publication PMC10775509.

pKd: −log10 of the molar value. Where two headings read alike, the source gives them in different places.

For data set [1], the target named is TREM-1 (Mus musculus) (UniProt Q9JKE2).
The target is the same in data set [2]. The source holds these as a separate data set.

Chain of UniProt Q9JKE2 (Q9JKE2 21-230): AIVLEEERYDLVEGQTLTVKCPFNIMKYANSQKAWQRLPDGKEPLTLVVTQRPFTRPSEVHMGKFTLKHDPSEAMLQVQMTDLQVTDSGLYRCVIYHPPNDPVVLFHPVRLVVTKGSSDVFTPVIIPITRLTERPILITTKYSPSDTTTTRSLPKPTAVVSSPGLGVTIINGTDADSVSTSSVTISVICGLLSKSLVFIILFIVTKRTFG

A word on the pKd: it is −log10 of the Kd, conventionally taken in molar units. With HMGB1 (from UniProt P63158), the pKd with TREM-1 (Mus musculus) [1] was 4.45.

For CIRP (from UniProt P60824), the pKd with TREM-1 (Mus musculus) [2] is 6.93.
